Assay results published in publication PMC6543031.

Target: N-tagged HA-SadB protein (Pseudomonas fluorescens F113)
Test: SEC; gel filtration of HA-SadB, in the presence or absence of c-di-GMP; data not shown

Substance: N-tagged HA-SadB protein (natural protein)
- stoichiometry N: 2
